Assay [1] has as its target recombinant human LRP1 ligand binding cluster II (human). Kind of assay: solid-phase binding assay, immobilised receptor.
Assay [2] has as its target MAT CR23 (human). In words: solid-phase binding assay (FIG. 9); target not given, MatRAP1 was selected on MAT CR23.
Assay [3] deals with LRP1 CR3-5 (human). Kind of assay: solid-phase binding assay, immobilised CR protein, anti-RAP detection.
In the next assay the target is LRP2 CR34-36 (human) (UniProt P98164). The assay is described as above.
In assay [4] the target is LRP2 CR89 (human) (UniProt P98164). The description is as above.
Assay [5] deals with MAT CR23 (human). The assay is described as above.
Sequence of MAT CR23 (human) (Q9Y5Y6 whole entry): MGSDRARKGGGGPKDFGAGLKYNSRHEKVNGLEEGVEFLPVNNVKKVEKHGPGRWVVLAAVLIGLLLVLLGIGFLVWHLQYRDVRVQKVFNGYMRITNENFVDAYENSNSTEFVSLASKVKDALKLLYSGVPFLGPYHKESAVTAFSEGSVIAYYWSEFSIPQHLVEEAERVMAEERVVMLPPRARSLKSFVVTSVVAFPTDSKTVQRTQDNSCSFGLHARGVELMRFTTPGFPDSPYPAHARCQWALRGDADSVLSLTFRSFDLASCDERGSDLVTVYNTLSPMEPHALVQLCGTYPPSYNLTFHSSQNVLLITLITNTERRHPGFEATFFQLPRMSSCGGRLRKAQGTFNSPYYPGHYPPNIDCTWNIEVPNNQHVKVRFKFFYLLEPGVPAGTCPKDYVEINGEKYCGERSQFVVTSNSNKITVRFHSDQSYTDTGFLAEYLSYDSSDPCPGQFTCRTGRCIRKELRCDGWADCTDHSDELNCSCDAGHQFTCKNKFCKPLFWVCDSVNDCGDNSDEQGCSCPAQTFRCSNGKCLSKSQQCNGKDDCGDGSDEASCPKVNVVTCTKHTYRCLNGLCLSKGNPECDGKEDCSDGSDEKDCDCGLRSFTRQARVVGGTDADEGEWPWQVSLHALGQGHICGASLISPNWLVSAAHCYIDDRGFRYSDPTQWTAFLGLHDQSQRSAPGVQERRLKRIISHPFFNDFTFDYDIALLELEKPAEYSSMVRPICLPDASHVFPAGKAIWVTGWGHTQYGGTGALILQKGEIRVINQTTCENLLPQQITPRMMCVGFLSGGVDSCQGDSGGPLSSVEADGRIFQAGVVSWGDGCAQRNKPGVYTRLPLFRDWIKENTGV
The next assay addresses LRP2 CR3536 (human) (UniProt P98164). The description is as above.
For assay [6], the target named is LRP1 CR3-5 (human). The description is as above. This is another data set of the same source.
For assay [7], the target named is LRP2 CR89 (human) (UniProt P98164). Described as above. This is another data set of the same source.
A further assay has as its target LRP2 CR89 R1088D (human) (UniProt P98164). In words: solid-phase binding assay, immobilised mutant CR protein.
In assay [8] the target is recombinant human LRP1 ligand binding cluster II (human). In words: solid-phase binding assay, immobilised receptor, streptavidin-HRP detection, EDTA-corrected.
For assay [9] the target is unchanged. Kind of assay: competition ELISA, inhibitor pre-incubated with immobilised LRP1 cluster II before washing; competitor ligand RAP d3. In general terms: ELISA stands for enzyme-linked immunosorbent assay.
For assay [10] the target is unchanged. In words: competition ELISA on immobilised LRP1 cluster II; competitor ligand RAP d3 (2 nM).
Assay [11] has as its target LRP1 CR3-5 (human). In words: phage panning of a RAP library randomised at 256 and 270 on immobilised LRP1 CR3-5.
In another assay the target is 8D6 CR12 (human). Kind of assay: solid-phase binding assay (FIG. 10).

Read-outs that look alike come from different tables or passages of the source. Positions of bridges follow the written chain, without caps; N, C: chain ends. No end group written: not given here. A value given as a limit tells only on which side of the number the result lay.

From patent US8440629B2 come the findings set out here.

The term Kd denotes the equilibrium constant for the complex coming apart. Broadly, the EC50 is the concentration giving half of the maximal effect.

B1: Heptide (peptide)
peptide: CGKHFEAKIEKHNHYQKQLEIAHEKLRHAESVGDAERVSRSREKHALLEGRTKELGYTVKKHLQDACG
modifications: disulfide 1-67
With B1, the dissociation constant Kd in [1] stood at 3.5 nM.

B2: MatRAP1 N-42 (ligand)
chain: FREELKHFGAKIERHNHYQKQLEIAHEWLRHAESVGDGERVSRSREKHALLEGRTKELGYTVKKHLQDLSGRISRAR
Take B2: the fold increase in affinity over the full-length d3 variant in the assay with MAT CR23 (human) [2] was 3 fold.

B3: MatRAP1 N-42 without the C-terminal linker and affinity tag (ligand)
chain: FREELKHFGAKIERHNHYQKQLEIAHEWLRHAESVGDGERVSRSREKHALLEGRTKELGYTVKKHLQDLSGRISRAR
Consider B3, for which, in the assay with MAT CR23 (human) [2], the fold increase in binding affinity over MatRAP1 N-42 was 2 fold and the fold increase in binding affinity over full-length MatRAP1 d3 stood at 6 fold.

B4: RAP d3 (ligand)
chain: LDRLRRVSHQGYSTEAEFEEPRVIDLWDLAQSANLTDKELEAFREELKHFEAKIEKHNHYQKQLEIAHEKLRHAESVGDGERVSRSREKHALLEGRTKELGYTVKKHLQDLSGRISRAR
Turning to B4, the Kd with LRP1 CR3-5 (human) [3] was 11 nM; with LRP2 CR89 (human) [4], greater than 300 nM; with LRP1 CR3-5 (human) [6] it was 16 nM. Also, the binding as percent of that for LRP1 CR3-5 with LRP2 CR34-36 (human), with MAT CR23 (human) [5] and in the assay with LRP2 CR3536 (human) was less than 5% each time.

B5: MegaRAP1 d3 double revertant K251E, E270K (ligand)
chain: LDRLRRVSHQGYTTEAKFEEPRVIDLWDLAQSANLTDKELEAFREELKYFEAKIEAHNHYQKQLEIAHEKLRHAESVGDGERVSRSREKHALLEGRTKELGYTVKKHLQDLSGRISRAR
The molecule B5 gave a fold difference in affinity against the single-site E270K revertant in the assay with LRP2 CR89 (human) [7] of 20 fold.

B6: RAP d3 E251K, K256A, K270E (ligand)
chain: LDRLRRVSHQGYSTEAEFEEPRVIDLWDLAQSANLTDKELEAFREELKHFKAKIEAHNHYQKQLEIAHEELRHAESVGDGERVSRSREKHALLEGRTKELGYTVKKHLQDLSGRISRAR
As for B6, in the assay with LRP2 CR89 (human) [4], the Kd came out at 114 nM.

B7: MegaRAP1 d3 double revertant A256K, E270K (ligand)
chain: LDRLRRVSHQGYTTEAKFEEPRVIDLWDLAQSANLTDKELEAFREELKYFKAKIEKHNHYQKQLEIAHEKLRHAESVGDGERVSRSREKHALLEGRTKELGYTVKKHLQDLSGRISRAR
On to B7, for which, in the assay with LRP1 CR3-5 (human) [6], the fold improvement in affinity against the E270K single-site revertant stood at 30 fold. Also, in the assay with LRP2 CR89 (human) [7], the fold loss of affinity against the E270K single-site revertant came out at 2 fold.

B8: MegaRAP1 d3 (ligand)
chain: LDRLRRVSHQGYTTEAKFEEPRVIDLWDLAQSANLTDKELEAFREELKYFKAKIEAHNHYQKQLEIAHEELRHAESVGDGERVSRSREKHALLEGRTKELGYTVKKHLQDLSGRISRAR
B8 gave a fold loss of affinity relative to LRP2 CR89 in the assay with LRP2 CR89 R1088D (human) of 2 fold. This molecule also registered a Kd with LRP2 CR89 (human) [7] of 38 nM.

B9: MegaRAP1 d3 E270K (ligand)
chain: LDRLRRVSHQGYTTEAKFEEPRVIDLWDLAQSANLTDKELEAFREELKYFKAKIEAHNHYQKQLEIAHEKLRHAESVGDGERVSRSREKHALLEGRTKELGYTVKKHLQDLSGRISRAR
B9: the Kd was found to be 142 nM with LRP1 CR3-5 (human) [6] and 8 nM with LRP2 CR89 (human) [7].

B10: tag-free RAP d3 peptide linked to maleimide-PEO2-biotin (ligand)
chain: LDRLRRVSHQGYSTEAEFEEPRVIDLWDLAQSANLTDKELEAFREELKHFEAKIEKHNHYQKQLEIAHEKLRHAESVGDGERVSRSREKHALLEGRTKELGYTVKKHLQDLSGRISRARC
modifications: maleimide-PEO2-biotin on the unique C-terminal cysteine
On to B10, for which the Kd in assay [8] was 8 nM.

B11: mRAP-8c (peptide)
peptide: CGKHFEAKIEKHNHYQKQLEIAHEKLRHAESVGDGERVSRSREKHALLEGRTKELGYTVKKHLQDGC
modifications: disulfide 1-67
For the molecule B11, in assay [1], the Kd fell in the range of 4 to 6 nM.

B12: Human RAP (ligand)
chain: YSREKNQPKPSPKRESGEEFRMEKLNQLWEKAQRLHLPPVRLAELHADLKIQERDELAWKKLKLDGLDEDGEKEARLIRNLNVILAKYGLDGKKDARQVTSNSLSGTQEDGLDDPRLEKLWHKAKTSGKFSGEELDKLWREFLHHKEKVHEYNVLLETLSRTEEIHENVISPSDLSDIKGSVLHSRHTELKEKLRSINQGLDRLRRVSHQGYSTEAEFEEPRVIDLWDLAQSANLTDKELEAFREELKHFEAKIEKHNHYQKQLEIAHEKLRHAESVGDGERVSRSREKHALLEGRTKELGYTVKKHLQDLSGRISRARHNEL
As to B12, the EC50 in assay [9] turned out to be 0.3 nM. In assay [10], the EC50 turned out to be 0.5 nM and the fold better EC50 than monomeric mRAPc peptide stood at 64 fold.

B13: mRAP-14c (peptide)
peptide: CEAKIEKHNHYQKQLEIAHEKLRHAESVGDGERVSRSREKHALLEGRTKELGYTVKKHGC
modifications: disulfide 1-60
Turning to B13, the Kd in assay [1] turned out to be 21 nM.

B14: wild-type RAP displayed on M13 phage (ligand)
chain: YSREKNQPKPSPKRESGEEFRMEKLNQLWEKAQRLHLPPVRLAELHADLKIQERDELAWKKLKLDGLDEDGEKEARLIRNLNVILAKYGLDGKKDARQVTSNSLSGTQEDGLDDPRLEKLWHKAKTSGKFSGEELDKLWREFLHHKEKVHEYNVLLETLSRTEEIHENVISPSDLSDIKGSVLHSRHTELKEKLRSINQGLDRLRRVSHQGYSTEAEFEEPRVIDLWDLAQSANLTDKELEAFREELKHFEAKIEKHNHYQKQLEIAHEKLRHAESVGDGERVSRSREKHALLEGRTKELGYTVKKHLQDLSGRISRARAEAETG
B14 showed a fold enrichment after one round of panning with LRP1 CR3-5 (human) [11] of 7 fold.

B15: MatRAP1 truncated variant, amino acids 243-313 (ligand)
chain: FREELKHFGAKIERHNHYQKQLEIAHEWLRHAESVGDGERVSRSREKHALLEGRTKELGYTVKKHLQDLSG
On to B15, for which, in the assay with MAT CR23 (human) [2], the fold increase in binding affinity over MatRAP1 N-42 came out at 4 fold and the fold increase in binding affinity over full-length MatRAP1 d3 stood at 12 fold.

B16: truncated 320RAP1, amino acids 243-313 (ligand)
chain: FREELKHFEAKIESHNHYQKQLEIAHESMRHAESVGYGERMSRSREKHALLEGRTKELGYTVTMHLQDLSG
The molecule B16 yielded a fold improvement in affinity over the full-length variant with 8D6 CR12 (human) of 3.5 fold.
